The DeepSol protein solubility set

assay: soluble on expression in E. coli; label from the status in PepcDB or PDB records

Sequence | soluble on expression in E. coli
GCALNCSFCSTAKQGFNRNLSTAEIIGQVWLAARELSDNNGTHDKKITNVVMMGMGEPLLNFDNVVSAMNIMMDDLAYGLSKRRVTLSTSGVLPEMERLREVSPVALAVSLHAPTDELRNELVPINKKYPLSQLISLCKRYFKDEPRRKVTFEYVMLKGVNDQPEHASQLIKLLHNVPAKVNLIPFNPFPLTQYQRSSRETIDAFRDKLMKHGINTITRKTRG | not soluble
MASFTSPDIDEKLAILHREMASLRVECDRLLNKHLIVEHTLSQSCSGWPNGAADTSSAYNTGGESCRSVSVTPDGVFIPTTSNSQMIQSQPSPRVLRRTVKMASPAVQRRLVPQNLPTSSSSRPPTVLLPHDSPEQPSRPIHRMHQELPIPEDVVSMVSSNKTQRSIIRAPSAVFGALKGSSLRKLSISRNIQMTTKVNKEESDRKEKEAEEYAKRFRIPSYSVVLKEEKRKSSFRIPVPHYFRSSKAKSKVYQVDAPDEEIEEVIDEEKMAAKTDLGDTTVHYKWKVKRRCDGSRYIVKRPIRSQILKKREAQVYRERAPISTDDDAMSELKLGRYHTKEERKRILERENTKKMLKLQQKMMEKAHPSEQVIYQMSQQKLARQKDAMVMDEFVTTREVLSSRTRPDGIHGVVSVTTV | not soluble
MSLINPIDPAARRPQTTVQPSTPPQAKPKPLAATQVLPAQSVLNLAQSELGTDMQELGSIFPVEESCAETLENMSFALGTQARERMRGLSSSADRARPRSMMQRLAKQVSATAPDHLEELRQRVPGIEAVEEVDDLLNSLRQHQFDAGEMALLLAAMLGKDGLSPTRRRRLEEALDRVMDDEDWALQLFSHLEFGAVGKSGLAELRRLYQRAASRQSGLVYWFGQFRQMDDRQRKLKTLIRALAFELSAQGGATDIRLAAVITDLKRVLQFLGMEDHCDRVAKALAIPELDGNRIIEELLEIIQQSWVYPDWLSSRADALMPEEHSRHGYARRMGELVKLLPDDCFEDIDQRETILAAFLEYQEQLADEEEGHHHHHH | soluble
MGSDKIHHHHHHMPFANPQEAIDFLDKHPQVQHVEVFIIDPNGIPRGKLLHRQEVLSMYRHGRPLPSTILGLTVQGDDVEDTGLVWEVGDADCLAFPIEGGLLMQPWRAQPTAQVHLTMHPEAGMPAAVADPRLVLSKVIDSLQADGFYPVMAAELEFFLLDQRFDANGRPQPAMQSDGHRPHQTQVYGILELERLQPFLDDLYHACEVQGIPARTAISEYAPGQVEITLEHRFDALQAMDEAVRYKRLVKGVAAKHGMQACFMAKPFGELAGSGMHMHVSLADADGNNRFASDNPEGTPELTQSIAGMMATLEDAQLLFCPNANSFRRFQSASYAPIAKTWGVNNRTVSFRVPGGPAPSRHVEHRICGADANPYLAAAAILAACHHGIRNQLSPGQAIVGNGYEGKHQTLPTDWLSALTNFERSEWMKSVLGEDFHRIYGRIKRAEYQEFMAEVGQQDWHWYLTHA | not soluble
MNLQIKHAIFVLGIFLQVQGIKDTSIKIFSSEIKNIDKTPRIETIESTSTVHKVSTMKRIFDLPKLRTKRSALFPAANICPQESLRQILASLQEYYRLRVCQEVVWEAYRIFLDRIPDTEEYQDWVSLCQKETFCLFDIGKNFSNSQEHLDLLQQRIKQRSFPGRKDETASMETLEAPTEAPVVPTDVSRMSLGPFPLPSDDTDLKEILSVTLKDIQKPTTESKTEPIHVSEFSSEEKVEFSISLPNHRFKAELTNSGSPYYQELVGQSQLQLQKIFKKLPGFGEIRVLGFRPKKEEDGSSSTEIQLMAIFKRDHAEAKSPDSHLLSLDSNKIESERIHHGVIEDKQPETYLTATDLKKLIIQLLDGDLSLVEGKIPFGDEVTGTLFRPVTEPDLPKPLADVTEDATLSPELPFVEPRLEAVDREGSELPGMSSKDSSWSPPVSASISRSENLPSFTPSIFSLDAQSPPPLMTTGPTALIPKPTLPTIDYSTIRQLPLESSHWPASSSDRELITSSHDTIRDLDGMDVSDTPALSEISELSGYDSASGQFLEMTTPIPTVRFITTSSETIATKGQELVVFFSLRVANMPFSYDLFNKSSLEYQALEQRFTDLLVPYLRSNLTGFKQLEILSFRNGSVIVNSKVRFAKAVPYNLTQAVRGVLEDLRSTAAQGLNLEIESYSLDIEPADQADPCKLLDCGKFAQCVKNEWTEEAECRCRQGHESHGTLDYQTLNLCPPGKTCVAGREQATPCRPPDHSTNQAQEPGVKKLRQQNKVVKKRNSKLSAIGFEEFEDQDWEGN | soluble
VADVVPLDANNRILVHQGLMRIRAGRARPGLRAILEVARREPARITSTDLGFILGPRLNAAGRLDDMSLGIECLLCDDPTRAREMAVQLDELNQDRKSIEQGMQREALAQLKDLPMESMPFGLCLFDAEWHQGVIGIL | not soluble
VDGDQCESNPCLNGGSCKDDINSYECWCPFGFEGKNCEL | soluble
MAHHHHHHMKEARKGPCVPWQQNYARWQHTTPVNHVTVMIALDTMNKDRGAPCLVPGSHRWREGGLLPSVPYDPAKDEAQQLNTIWEITNEEESEMLMDTPPATVDMKRGEALLIHPLTLFATHGNRSLDAVRCCFIHYMGGKTYATQNGPLLPHTTQFQAGAMIQGPFYPVVFDPAMTEELAMLPGESAAQNDITEEV | not soluble
MGSDKIHHHHHHMPDAAGGVRVPHPPRPFDRPDRPAARLCRTQQLHPRVPPLERHLAPRLAGTAEPDRALKPQDKSLSKADPMTRLLLLEGNTADKRARGRELGVRSSSEIYAQAIAAHFPRIELDVLNGADEGEAIPHDRSWADYDGFVVTGSSLHAYDREFAVTNQIALVAQAAEHGLPIFGSCWGLQIAVMAAGGEVAYNPRGREVGFARKIALNDAGRAHPMFGAKQHVFDAPCIHYDEVVRMPDGATLLASNGHSLVQAAVIPLGQSEVWAVQYHPEFDLAQLVQLYTLYAADMIAQGFFSNEAELVAYRDKIARLAQDPTDAGLAWQLGIDADVLDPRQRAAEIIAWIESRVLNGT | not soluble
MAHHHHHHMATPRHGDLDSICSLSSSENSPRGGGQSSERLIDLLTRPCAQGGYGGRLNYTGFATLAASLGWNQEDMDDCWYDIVMGEPCAEAVDMKRVAECVCSYCLASPLPILEHSTLAKSSAAKPATPPRLPHASRERSTTVLLSPPTPRFRRAESVASTLPKTGDKQRVTTATASPSQACAHRRCTAPNVFPRYAVETVSSEQKKASLSPGRGSHRPHNRRTTAKSSRQTSPAPTLSQTSGPSGCSVFSRLYEKGMEQHRKRIAVKPVDSDAAECTFQPHITPYTPKAADTASVHYNKPTESYFAKLTAPGTPPDAICASPETPRVTYHPAPGPSSDVPAGYVEGVARLRSYIASRYAHATFASSLRGSSSADVAHLVEAPILRLPVTVRGVTDAVDVRLASPDTRASLGRECSVGPRRPCFRQRCEARHVSFPSPSRVRFQS | soluble
MGSDKIHHHHHHVSRLDQLNDWLHQALQGKPHHLTTASADASFRRYFRVHLADGATLIAMDAPPPQEDCRPFVKVAALFEQAGLNVPKVLAQDVENGFLLLTDLGAQTFLDVLNEDNADTLFRDAIDALVTWQLASRPGVLPAYDEALLRRELCLFPDWYVARHLNVELSESQRSTLENAFSTIVRYNLAQPSVYVHRDYMPRNLMISTPSPGILDFQDAVYGPISYDVASLFKDAFISWQEERVLDGTIRYWEKARKAGLPVRSDFGDFYRDFEWMGLQRHLKVLGIFARIHYRDGKPKYLADTPRFMNYVRQVCVRYGELRPLLRLLDELEKREPQFGYTF | not soluble
MGSDKIHHHHHHMQRQTELKNWLQTVYPERDFDLSFAAADADFRRYFRAAFSDGGSVVCMDAPPDKMSVAPYLKVQKLFDMVNVPQVLHADTDLGFVVLNDLGNTTFLTAMLQEQGEAAHKALLLEAIGELVGLQKASREGVLPEYDRETMLREINLFPEWFVAKELGRELTFKQRQLWQQTADTLLPPLLAQPKVYVHRDFIVRNLMLTRGRPGVLDFQDALYGPISYDLVSLLRDAFIEWEEEFVLDLVIRYWEKARAAGLPVPAEFDEFYRRFEWMGVQRHLKVAGIFARLYYRDGKDKYRPEIPRFLNYLRRVSRRYAELAPLYALLVELVGDEELETGFTF | not soluble
MNNVTFEQLQETLYHEKLANGLDVYILPKTGFNKTYATFTTKYGSIDSEFIPLNQKEALHVPDGIAHFLEHKMFEDEEGDVFQLFSKQGASCNAFTSFTRTAYLFSSTTNVKKNVETLLDFVQHPYFTEESVEKEKGIIGQEITMYDDNPDWRNYFGVIENMYEHHPVKIDIAGTIPSISKITKDLLYTCYETFYHPSNMLLFIVGPVDVNEMMTLVKENQGKKEFKPAGDIQRFFPAEPEKVAKPHSVISMSVQTPKCLVGYKEKQPVRQGKDLLVRELGINVLLELMFGQGSKQYEQLDDEGLINDTFSFDHTSEYGFGFTIMGGDTKSPNRLAERIEEMVEAFKEQPLDEAAVKRVIKKKIGGFLRSLNSPEFIANQFTRYEFNKMNLFDVVPTLESLTVEKLTDILHDHFQKERFTVCQVKPEGYEEG | not soluble
MTTEYLDEERDLPLPRQKKGIDHTQTEPIRGFFGVKDMFAFENVGFTRSSEGKRYLVCGECEQGPVGFVDPVTEMNYVSPERLDVLPDVAAAAVEAGK | not soluble
MSTPIPPSSPPSTPTTRANNRTKSFSGTGTVATTACICGNVPIALSANTLADSLKVSPLYKQQDSARWNAAAQVYRTSRAVSPTLEEKEKFGFDNAYINQMISPKMSIPKTPISLEEIADMNRKRHEVEGGVIPSDDDVGPLELEAIAAVHELAHEVQDISVSEMLPRTSDLIFVNVKTQEGSPYTLELTMKGWRIASSHTDCMNGDYTKISLHTKYYRNARELLKFISPDHATRFNECVAQKLSKLAEVAVQ | not soluble
MGSDKIHHHHHHMQINRLFEIIYILLENRTITAAELAERFEVSARTIYRDVEILAQGGMPIYMSKGKGGGISLLPDFILNKAVLTEEEKSEILSSLQAFNAVNLSKSETALSKLTSMLGAKNTDWIEVDFSSWGHFENDRAYFENIKTAIIEKKIITFMYASGKAEKLLREVLPLKLVFKGAAWYLYGYCTLRRDYRFFKLRRITELAVTDTGFEMKTPETIFAGQKLDTGTYLKAKLLISKTMAFRVYDEISSYEIDEKGDFVCRLYLPDIATLCTYAASFGEHCIILSPEQAVAEMKRRLQNSLKNYS | not soluble
MCMSSQSYFKSVMYALVTGGTRGIGRAITEALLKEGYNVAVLYHGSEDKAKELREKGVLTVRCDVGDRNQVKKAKEEISNHFPRLDVLVNNAGIWYLMPFEQFDEEKYERMLRVNLNGTIYVTYEFLSLLKKSSAASIINIASNAGIGTAAEGTTFYAITKAGIIILTRRLAFELGKYGIRVNAVAPGWIETDMTLGNKSDEEKEKLREIFRNKTVLHTTGKPEDIANIVVFLASEKARYITGQVIVADGGRIDNLTHSV | soluble
MGSDKIHHHHHHMFMERQDRYYQTYLNILKEELVAAMGCTEPIAIAYGAAKAREVLGAVPHKVVLEVSSNIIKNVKSVVVPNTDGLKGIEAATAAGIIAGRSDKILEVIAEVCQAEKQQIKTYLSETDIEVKLADSQIIFDIMITMFHQDSYVKLRIADYHTHIVHIEKNGEIIFGTGDLDAGISSLTDRKLLSVSKIIEFADSVRIEDVKELLDKQIEYNSAIARAGMEGNYGANVGRVLLKTYGNDVKIRAKAMAAAGSDARMSGCELPVIINSGSGNQGMTASLPVIEYAAELQSGEEKLYRALVVSNLITLHLKTGIGRLSAFCGVICAGCGSGAGIAYLHGGGYDEIAHTIVNAAAIVSGIVCDGAKPSCAGKIAAAVDAGILGYLMYKEGQQFRGGDGIVAKGIENTIANIGYLGKVGMKETDKEIINIMLNQCSS | not soluble
MDKEIKICPRCEQGYLYHAKPKYFSGEVILCDECYAMWLGDMKIFYGQYGKDFYDYHEFMKDKGIEEINMWEGELFDHPYYEDEKFK | not soluble
KKEDIVRIHASSGTSGKPTVVGYTAKDIETWSDLIARSLTMIGLSKGDTIQNSMNYGLFTGGLGFHYGVERMGAMIVPAATGNTARQLEMMIDFGVTAVHCTPSYAFYLAETAEELDLIDKLSLKAAIFGGEPWSENTRKQLEKRLNLKAYDCYGLSEMFGPGVGFECQEQDGLHIW | not soluble
